Patent US20250369983A1

Target: full length gp41 HIV protein (Abcam) (human immunodeficiency virus-1 (HIV-1))
Assay: ELISA titration: plates coated with 1 µg/mL antigen, 2F5 in 4-fold dilutions; y axis without label (absorbance)

2F5, broadly neutralizing human monoclonal antibody (Polymun Scientific)
EC50 (read off the curve): 0.1 µg/mL
